Assay: yeast display, Sf9 membrane polyspecificity reagent, FACS + sequencing; frameworks hold sequencing errors
How it was run: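 Genes from sorted yeast were amplified by colony PCR, read by MiSeq 2 × 250 sequencing and filtered on CDR length. These cells carried a synthetic nanobody library in Saccharomyces cerevisiae BJ5465 and were sorted by FACS into low and high (top ~1%) gates on anti-HA and streptavidin fluorescence. Polyreactivity is labelled according to the gate of origin.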

Sequence	polyreactivity (PSR sort gate)
QVQLVESGGGLVQAGGSLRLSCAASGRNFFRYAMGWYRQAPGKERELVAAISRSGGRTYYADSVKGRCTLSRDNAKNTVFLQMNSLNREDTAVYYCAVRYRQYSQTVASDYGYWGPGTQVTVSS	high polyreactivity
QVQLVESGGGLVQAGGSLRLSCAASGRNFGYNAMGWYRQAPGKERELVAAITTSGGSTYYADSVKGRFTISRDNAKNTVYLQMNSLKPEDTAVYYCARDSLQVLYPYASDDSWGQGTQVTVSS	low polyreactivity
QVQLVESGGGLVQAGGSLRLSCAASGRNFKPNVMGWYRQAPGKERELVAAISWSGGASTYYADSVKGRFTISRDNAKNTVYLQMNSLKREDTAVYYCNAAKRNRYDYWGQGTQVTVSS	low polyreactivity
QVQLVESGGGLVQAGGSLRLSCAASGRNFKYYTMGWYRQAPGKETELVAAISSGGRTKYADSVKGRFTISRDNAKNTVYLQMNSLKPEDTAVYYCNAGYPYPFYRSSQTGGYDYWGQGTQVTVSS	high polyreactivity
QVQLVESGGGLVQAGGSLRLSCAASGRNFNKNAMGWYRQAPGKERELVAAITDRGGSTNYADSVKGRFTISRDNAKNTVYLQMNSLKPEDTAVYYCNTGRKLVYRYPGYDYWGQGTQVTVSS	low polyreactivity
QVQLVESGGGLVQAGGSLRLSCAASGRNFNVKAMGWYIQAPGKESELVAGITRGGITTYADSVKGRFTISRDNAKNSVYLQMYSLKPVDTAVYYCAAVGWGSRYDTWYYLYDYWGQGSQVTVSS	high polyreactivity
QVQLVESGGGLVQAGGSLRLSCAASGRNFPSYAMGWYRQAPGKERELVAAISFSGASTYYADSVKGRFTFSRDNAKNTVYLQMNSLKPEDTAVYYCNASGVGADVQWSWEEGDYWGQGTQVTVSS	low polyreactivity
QVQLVESGGGLVQAGGSLRLSCAASGRNFPVNAMGWYRQAPGKERELVATISYSGSSTYYADSVKARFTISRDNAKNTVYLQMNSLKPEDTAVYYCNADAESFDDGYWGQGTEVTVSS	low polyreactivity
QVQLVESGGGLVQAGGSLRLSCAASGRNFPYYAMGWYRQAPGKERELVATISSSGGSTYYADSVKGRFTISRDNAKNTVYLQMNSLKPEDTAVYYCAADWYGYRQFHGYYWGQGTQVTVSS	high polyreactivity
QVQLVESGGGLVQAGGSLRLSCAASGRNFRKYTMGWYRQAPGKERELVATISNSGVSTYYADSVKGRFTISRDYAKNTVYLQMNSLKPEDTAVYYCSKEWLYYNGFFRSYYWGQGTQVNVSS	high polyreactivity
QVQLVESGGGLVQAGGSLRLSCAASGRNFRYNAMGWYRQAPGKERELVAAISSGDRTNYADSVKGRFTISRDNAKNTVYLQKKSLKPVDTAVYYCAAPTDSYYEFDYWGQGTQGTVSS	low polyreactivity
QVQLVESGGGLVQAGGSLRLSCAASGRNFSRYAMGWYRQAPGKERELVAAISRRGGSTYYADSVKGRFTISRDNAKNTVYLQMNSLKPEDTAVYFCAKYPSAYVDSDVTYDMDYWGQGTQVTVSS	low polyreactivity
QVQLVESGGGLVQAGGSLRLSCAASGRNFYFYAMGWYRQAPGKEREFVATISSTGGSTYYADSVKGRFTISRDNAKNTVYLQMNSLKPEDTAVYYCAVRGWYPGFRYDYWGQGTQVTVSS	low polyreactivity
QVQLVESGGGLVQAGGSLRLSCAASGRNFYRYGMGWYRQAPGKERELVAAITYGGGSTYADSVKGRFTISRDNAKNTVYLQMNSLKPEDTAVYYCNARSRYRHYGFDYWGQGTQVTVSS	high polyreactivity
QVQLVESGGGLVQAGGSLRLSCAASGRNLEYYAMGWYRQAPGQERELVATITSRGDTTHYADSVKGRFTISRDNAKNTVYLQMNSLKPEDTAVYYCAAAYVEYTPYRWYGDDYWGQGTQVTVSS	low polyreactivity
QVQLVESGGGLVQAGGSLRLSCAASGRSFDRNAMGLYRQAPGKERELVADITSIGTRTYYADSVKGRFTISRDNAKNSVYLQMNSLKPEDTAVYYCAADYYYSYWYWFSSSYGYWGQGTQVTVSS	high polyreactivity

Sequence	polyreactivity (PSR sort gate)
QVQLVESGGGLVQAGGSLRLSCAASGRSFEVYVMGWYRQAPGKERELVAAISTGGSTYYADSVKGRFTISRDNAKNTVYLQMNSLKPEDTAVYYCAAKRTGNGYPRSGYSRYEYWGQGTQVTVSS	high polyreactivity
QVQLVESGGGLVQAGGSLRLSCAASGRSFGNYVMGWYRQAPGKERELVAAISRSGGSTYYADSVKGRFTISRDNAKNIVYLQMNSLKPEDTAVYYCNTVTTYDVEYWGQGTQVTVSS	high polyreactivity
QVQLVESGGGLVQAGGSLRLSCAASGRSFLGYPMGWYRQAARKERELVAAISSSGTSTYYADSVKGRFTISRDNAQNTVYLQMNSLKPEETSVYYCAKYAYSYYPPAYDYWGQGTKVTVSS	high polyreactivity
QVQLVESGGGLVQAGGSLRLSCAASGRSFRDYGMGWYRQAPGKERELVAVITWGGGSTYYADSVKGRFTISRDNAKNTVYLQMNSLKPEDTAVYYCAKEYHYYYWGQGTQVTVSS	low polyreactivity
QVQLVESGGGLVQAGGSLRLSCAASGRSFSIYAMGCYRQAPGKERELVASISRGISTNYADSVKGRFTISRDNAKNTVYLQMNSLKPEDTAVYYCASDLFSNYRYWGQGTQVTVSS	high polyreactivity
QVQLVESGGGLVQAGGSLRLSCAASGRSFYFNAMGWYRQAPGKEWELVAVINSSGSTDYADSVKGRFTISRDNAKNTVYLQMNSLKPEDTAVYYCAAEVTPSGYGYWGQGTQVTVSS	low polyreactivity
QVQLVESGGGLVQAGGSLRLSCAASGRSLEHNAMGWYSQAPGKERELVAAISGSGGTTYYADSVKGRFTISRDNAKNTVYLQMNSLKPEDTAVYYCNAKLYRSFDYWGQGTQVTVSS	low polyreactivity
QVQLVESGGGLVQAGGSLRLSCAASGRTCKPYAMGWYRQAPGKEREVVAVITSNGSSTYYADSVKGRFTISRDNAKNTVYLQMNSLKPEDTAVYYCATKLTYTLTSGAYAYDYWGQGTQVTVSS	low polyreactivity
QVQLVESGGGLVQAGGSLRLSCAASGRTCKYYAMGWYRQAPGKERELVATITWSGTSTNNADSVKGRFTISRDNAKNTVYLQMNSLKPEETAVYYCAARSKRRNYDYWGQGTQVTVSS	high polyreactivity
QVQLVESGGGLVQAGGSLRLSCAASGRTFAAYAMGWYRQAPGKERELVAAITSGGGTYYADSVKGRFTISRDNAKNTVYLQMNSLKPEDTAVYYCAADYISVYGYEYYYWGQGTQVTVSS	high polyreactivity
QVQLVESGGGLVQAGGSLRLSCAASGRTFAFNTMGWYRQAPGKERELVDAIRFSAGSTYYADSVKGRFTISRDNAKNTVYLQMNSLKPEDTAVYYCAASYGDRGGWGPGVDYWGQGTQVTVSS	low polyreactivity
QVQLVESGGGLVQAGGSLRLSCAASGRTFAFYTLGWYRQAPGKERELVAAITRNGSTSYADSVKGRFTISRDNAKNTVFLQMNRLKPEDTAVYYCATVGYPYTLWHQMDYWGQGTQVTVSS	low polyreactivity
QVQLVESGGGLVQAGGSLRLSCAASGRTFAFYTMGWYRQAPGKEREFVAASSWSGGSTHYADSVKGRFTISRDNEKNTVYLQMNSLTQEYTAVYYCAAGPFYRFTDGRDKTLDYWGQGNQVTVSS	high polyreactivity
QVQLVESGGGLVQAGGSLRLSCAASGRTFAGNAMGWYRQAPGKERELVAAISQGGGSTYYADSVKGRFTFSRDNATNSVYLQMNRLNPDDTAVYYCAAEIPRRWASFATLWYDYWGQGTQVTVSS	low polyreactivity
QVQLVESGGGLVQAGGSLRLSCAASGRTFAGNAMGWYRQAPGKERELVASISSSAGRTYYADSVKGRFTISRDNAKNTVYLQMNSLKPEDTAVDYCAARGGYVSTWTRFSKYNYWGQGTQVTVSS	high polyreactivity

— the nanobody polyreactivity screen of Harvey et al. (2022)
